According to patent publication US20160264649A1:

Key:
Assay in all cases: cell-based or functional assay
[1] = target: HIV-1 Env of isolate 92UG001 (subtype D) (HIV-1)
[2] = target: HIV-1 Env of isolate 92UG005 (subtype D) (HIV-1)
[3] = target: HIV-1 Env of isolate 92UG024 (subtype D) (HIV-1)
[4] = target: HIV-1 Env of isolate 92UG046 (subtype D) (HIV-1)
[5] = target: HIV-1 Env of isolate 92UG114 (subtype D) (HIV-1)
[6] = target: HIV-1 Env of isolate 98CN006 (subtype CRF08_BC) (HIV-1)
[7] = target: HIV-1 Env of isolate 98CN009 (subtype CRF07_BC) (HIV-1)
[8] = target: HIV-1 Env of isolate MGRM-D-001 (subtype D) (HIV-1)
[9] = target: HIV-1 Env of isolate MGRM-D-002 (subtype D) (HIV-1)
[10] = target: HIV-1 Env of isolate MGRM-D-003 (subtype D) (HIV-1)
[11] = target: HIV-1 Env of isolate MGRM-D-004 (subtype D) (HIV-1)
[12] = target: HIV-1 Env of isolate MGRM-D-005 (subtype D) (HIV-1)
[13] = target: HIV-1 Env of isolate MGRM-D-008 (subtype D) (HIV-1)
[14] = target: HIV-1 Env of isolate MGRM-D-011 (subtype D) (HIV-1)
[15] = target: HIV-1 Env of isolate MGRM-D-012 (subtype D) (HIV-1)
[16] = target: HIV-1 Env of isolate MGRM-D-013 (subtype D) (HIV-1)
[17] = target: HIV-1 Env of isolate MGRM-D-014 (subtype D) (HIV-1)
[18] = target: HIV-1 Env of isolate MGRM-D-016 (subtype D) (HIV-1)
[19] = target: HIV-1 Env of isolate MGRM-D-018 (subtype D) (HIV-1)
[20] = target: HIV-1 Env of isolate MGRM-D-019 (subtype D) (HIV-1)
[21] = target: HIV-1 Env of isolate MGRM-D-020 (subtype D) (HIV-1)
[22] = target: HIV-1 Env of isolate MGRM-D-021 (subtype D) (HIV-1)
[23] = target: HIV-1 Env of isolate MGRM-D-022 (subtype D) (HIV-1)
[24] = target: HIV-1 Env of isolate MGRM-D-024 (subtype D) (HIV-1)
[25] = target: HIV-1 Env of isolate MGRM-D-026 (subtype D) (HIV-1)
[26] = target: HIV-1 Env of isolate MGRM-D-028 (subtype D) (HIV-1)
[27] = target: HIV-1 Env of isolate MGRM-D-029 (subtype D) (HIV-1)
[28] = target: HIV-1 Env of isolate MGRM-F1-004 (subtype F) (HIV-1)
[29] = target: HIV-1 Env of isolate MGRM-F1-006 (subtype F) (HIV-1)
[30] = target: HIV-1 Env of isolate MGRM-F1-008 (subtype F) (HIV-1)
[31] = target: HIV-1 Env of isolate MGRM-F1-010 (subtype F) (HIV-1)
[32] = target: HIV-1 Env of isolate MGRM-F1-012 (subtype F) (HIV-1)
[33] = target: HIV-1 Env of isolate MGRM-F1-013 (subtype F) (HIV-1)
[34] = target: HIV-1 Env of isolate MGRM-F1-014 (subtype F) (HIV-1)
[35] = target: HIV-1 Env of isolate MGRM-F1-015 (subtype F) (HIV-1)
[36] = target: HIV-1 Env of isolate MGRM-F1-016 (subtype F) (HIV-1)
[37] = target: HIV-1 Env of isolate MGRM-F1-017 (subtype F) (HIV-1)
[38] = target: HIV-1 Env of isolate MGRM-F1-018 (subtype F) (HIV-1)
[39] = target: HIV-1 Env of isolate MGRM-F1-020 (subtype F) (HIV-1)
[40] = target: HIV-1 Env of isolate MGRM-F1-021 (subtype F) (HIV-1)
[41] = target: HIV-1 Env of isolate MGRM-F1-022 (subtype F) (HIV-1)
[42] = target: HIV-1 Env of isolate MGRM-F1-023 (subtype F) (HIV-1)
[43] = target: HIV-1 Env of pseudovirus isolate MGRM-G-001 (subtype G) (HIV-1)
[44] = target: HIV-1 Env of pseudovirus isolate MGRM-G-004 (subtype G) (HIV-1)
[45] = target: HIV-1 Env of pseudovirus isolate MGRM-G-006 (subtype G) (HIV-1)
[46] = target: HIV-1 Env of pseudovirus isolate MGRM-G-009 (subtype G) (HIV-1)
[47] = target: HIV-1 Env of pseudovirus isolate MGRM-G-011 (subtype G) (HIV-1)
[48] = target: HIV-1 Env of pseudovirus isolate MGRM-G-013 (subtype G) (HIV-1)
[49] = target: HIV-1 Env of pseudovirus isolate MGRM-G-014 (subtype G) (HIV-1)
[50] = target: HIV-1 Env of pseudovirus isolate MGRM-G-015 (subtype G) (HIV-1)
[51] = target: HIV-1 Env of pseudovirus isolate MGRM-G-016 (subtype G) (HIV-1)
[52] = target: HIV-1 Env of pseudovirus isolate MGRM-G-017 (subtype G) (HIV-1)
[53] = target: HIV-1 Env of pseudovirus isolate MGRM-G-019 (subtype G) (HIV-1)
[54] = target: HIV-1 Env of pseudovirus isolate MGRM-G-024 (subtype G) (HIV-1)
[55] = target: HIV-1 Env of pseudovirus isolate MGRM-G-025 (subtype G) (HIV-1)
[56] = target: HIV-1 Env of pseudovirus isolate MGRM-G-027 (subtype G) (HIV-1)
[57] = target: HIV-1 Env of pseudovirus isolate MGRM-G-028 (subtype G) (HIV-1)
[58] = target: envelope of aMLV pseudovirus (negative control)

B1: PGT-136 (antibody, V domains shown)
VH: QLQLQESGPGLVKPSETLSLTCTVSGGSMRGTDWGENDFHYGWIRQSSAKGLEWIGSIHWRGRTTHYKTSFRSRATLSIDTSNNRFSLTFSFVTAADTAVYYCARHKYHDIFRVVPVAGWFDPWGQGLLVTVSS
VL: EIVMTQSPPTLSVSPGETATLSCRASQNVKNNLAWYQLKPGQAPRLLIFDASSRAGGIPDRFSGSGYGTDFTLTVNSVQSEDFGDYFCQQYEEWPRTFGQGTKVDIK
- IC50 (neutralization) [1]: > 50 µg/mL
- IC50 (neutralization) [2]: > 50 µg/mL
- IC50 (neutralization) [3]: 0.052 µg/mL
- IC50 (neutralization) [4]: > 50 µg/mL
- IC50 (neutralization) [5]: > 50 µg/mL
- IC50 (neutralization) [6]: 0.406 µg/mL
- IC50 (neutralization) [7]: 0.428 µg/mL
- IC50 (neutralization) [8]: > 50 µg/mL
- IC50 (neutralization) [9]: > 50 µg/mL
- IC50 (neutralization) [10]: > 50 µg/mL
- IC50 (neutralization) [11]: > 50 µg/mL
- IC50 (neutralization) [12]: > 50 µg/mL
- IC50 (neutralization) [13]: > 50 µg/mL
- IC50 (neutralization) [14]: > 50 µg/mL
- IC50 (neutralization) [15]: > 50 µg/mL
- IC50 (neutralization) [16]: > 50 µg/mL
- IC50 (neutralization) [17]: > 50 µg/mL
- IC50 (neutralization) [18]: > 50 µg/mL
- IC50 (neutralization) [19]: > 50 µg/mL
- IC50 (neutralization) [20]: > 50 µg/mL
- IC50 (neutralization) [21]: > 50 µg/mL
- IC50 (neutralization) [22]: > 50 µg/mL
- IC50 (neutralization) [23]: > 50 µg/mL
- IC50 (neutralization) [24]: > 50 µg/mL
- IC50 (neutralization) [25]: > 50 µg/mL
- IC50 (neutralization) [26]: > 50 µg/mL
- IC50 (neutralization) [27]: > 50 µg/mL
- IC50 (neutralization) [28]: > 50 µg/mL
- IC50 (neutralization) [29]: > 50 µg/mL
- IC50 (neutralization) [30]: > 50 µg/mL
- IC50 (neutralization) [31]: > 50 µg/mL
- IC50 (neutralization) [32]: > 50 µg/mL
- IC50 (neutralization) [33]: > 50 µg/mL
- IC50 (neutralization) [34]: > 50 µg/mL
- IC50 (neutralization) [35]: > 50 µg/mL
- IC50 (neutralization) [36]: > 50 µg/mL
- IC50 (neutralization) [37]: > 50 µg/mL
- IC50 (neutralization) [38]: > 50 µg/mL
- IC50 (neutralization) [39]: 9.31 µg/mL
- IC50 (neutralization) [40]: > 50 µg/mL
- IC50 (neutralization) [41]: 2.42 µg/mL
- IC50 (neutralization) [42]: > 50 µg/mL
- IC50 [43]: 8.11 µg/mL
- IC50 [44]: > 50 µg/mL
- IC50 [45]: > 50 µg/mL
- IC50 [46]: > 50 µg/mL
- IC50 [47]: > 50 µg/mL
- IC50 [48]: > 50 µg/mL
- IC50 [49]: > 50 µg/mL
- IC50 [50]: > 50 µg/mL
- IC50 [51]: > 50 µg/mL
- IC50 [52]: > 50 µg/mL
- IC50 [53]: 44.3 µg/mL
- IC50 [54]: 0.152 µg/mL
- IC50 [55]: > 50 µg/mL
- IC50 [56]: 45.2 µg/mL
- IC50 [57]: > 50 µg/mL
- IC50 [58]: > 50 µg/mL

B2: PGT-135 (antibody, V domains shown)
VH: QLQMQESGPGLVKPSETLSLSCTVSGDSIRGGEWGDKDYHWGWVRHSAGKGLEWIGSIHWRGTTHYKESLRRRVSMSIDTSRNWFSLRLASVTAADTAVYFCARHRHHDVFMLVPIAGWFDVWGPGVQVTVSS
VL: EIVMTQSPDTLSVSPGETVTLSCRASQNINKNLAWYQYKPGQSPRLVIFETYSKIAAFPARFVASGSGTEFTLTINNMQSEDVAVYYCQQYEEWPRTFGQGTKVDIK
- IC50 (neutralization) [1]: > 50 µg/mL
- IC50 (neutralization) [2]: > 50 µg/mL
- IC50 (neutralization) [3]: 0.01 µg/mL
- IC50 (neutralization) [4]: > 50 µg/mL
- IC50 (neutralization) [5]: 1.29 µg/mL
- IC50 (neutralization) [6]: 0.429 µg/mL
- IC50 (neutralization) [7]: 0.071 µg/mL
- IC50 (neutralization) [8]: > 50 µg/mL
- IC50 (neutralization) [9]: > 50 µg/mL
- IC50 (neutralization) [10]: > 50 µg/mL
- IC50 (neutralization) [11]: > 50 µg/mL
- IC50 (neutralization) [12]: > 50 µg/mL
- IC50 (neutralization) [13]: > 50 µg/mL
- IC50 (neutralization) [14]: 23.5 µg/mL
- IC50 (neutralization) [15]: > 50 µg/mL
- IC50 (neutralization) [16]: > 50 µg/mL
- IC50 (neutralization) [17]: 2.21 µg/mL
- IC50 (neutralization) [18]: > 50 µg/mL
- IC50 (neutralization) [19]: 0.039 µg/mL
- IC50 (neutralization) [20]: > 50 µg/mL
- IC50 (neutralization) [21]: > 50 µg/mL
- IC50 (neutralization) [22]: > 50 µg/mL
- IC50 (neutralization) [23]: > 50 µg/mL
- IC50 (neutralization) [24]: > 50 µg/mL
- IC50 (neutralization) [25]: > 50 µg/mL
- IC50 (neutralization) [26]: > 50 µg/mL
- IC50 (neutralization) [27]: 30.8 µg/mL
- IC50 (neutralization) [28]: 0.211 µg/mL
- IC50 (neutralization) [29]: > 50 µg/mL
- IC50 (neutralization) [30]: > 50 µg/mL
- IC50 (neutralization) [31]: > 50 µg/mL
- IC50 (neutralization) [32]: 0.01 µg/mL
- IC50 (neutralization) [33]: 21.1 µg/mL
- IC50 (neutralization) [34]: > 50 µg/mL
- IC50 (neutralization) [35]: 1.11 µg/mL
- IC50 (neutralization) [36]: > 50 µg/mL
- IC50 (neutralization) [37]: 7.79 µg/mL
- IC50 (neutralization) [38]: > 50 µg/mL
- IC50 (neutralization) [39]: 0.168 µg/mL
- IC50 (neutralization) [40]: 0.065 µg/mL
- IC50 (neutralization) [41]: 0.964 µg/mL
- IC50 (neutralization) [42]: 0.088 µg/mL
- IC50 [43]: 0.393 µg/mL
- IC50 [44]: > 50 µg/mL
- IC50 [45]: > 50 µg/mL
- IC50 [46]: > 50 µg/mL
- IC50 [47]: > 50 µg/mL
- IC50 [48]: > 50 µg/mL
- IC50 [49]: > 50 µg/mL
- IC50 [50]: > 50 µg/mL
- IC50 [51]: > 50 µg/mL
- IC50 [52]: 0.137 µg/mL
- IC50 [53]: 0.145 µg/mL
- IC50 [54]: 0.062 µg/mL
- IC50 [55]: 0.592 µg/mL
- IC50 [56]: 0.062 µg/mL
- IC50 [57]: > 50 µg/mL
- IC50 [58]: > 50 µg/mL
